Test system: MS2 coat protein
Experiment: apparent KD of MS2 coat protein; designed switch direction (-1 OFF switch, 1 ON switch): -1; higher = weaker reporter binding
Summary of the method: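 Normalised cluster fluorescence was curve-fitted, and each design's median over clusters is its apparent KD. Before this, SNAP-549-labelled MS2 coat protein was titrated from 0.7 or 1.5 nM, doubling to 3 µM, over RNA switches transcribed on Illumina chips by stalled E. coli RNA polymerase. Titrations had no input, 200 uM small-molecule ligand, or an oligonucleotide input, and steps lasted 0.8–1.5 h (lowest) to 10–20 min (highest).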

[1] = Eterna round: R95, input ligand: microRNA oligo, concentration not stated
[2] = input ligand: microRNA oligo, concentration not stated

| Sequence | apparent KD of MS2 coat protein (input ligand: FMN 200 uM) [nM] | apparent KD of MS2 coat protein (input ligand: none) [nM] | other results |
| --- | --- | --- | --- |
| AAUAUUUUAGGAUAUGGCGGAAUAGACAUGAGGAUCACCCAUGUUAGAGGCGUGGUGAAGUUAGAAGGGAGGUGUU [Eternabot (L1) Solution 6] (Eterna round: R97, puzzle: Exclusion 5) | 60 | 113 |  |
| AAUCAGCGAGGAUAUACAGAUUCUGGGUGCGGCUCGGCGAGACAUGAGGAUCACCCAUGUAGAAGGUGCUAGCC [Teoredre] (puzzle: Exclusion 2) |  |  | apparent KD of MS2 coat protein [1]: 29.2 nM |
| AAUCAGUGUGUGAGGAUAUUGGUGGAAUGACUUAUUAAGAAGGCACAUGAGGAUCACCCAUGUGGGAAGUCACG [JR_BMEx4_Sub016] (Eterna round: R97, puzzle: Brourd's mod of Exclusion 4) | 11.6 | 12.8 |  |
| AAUCAUGAACGAGCUUUUUACAUGAGGAUCACCCAUGUCCUCUGCUCGUCUUGUCUUGGGCUUUUUUUGGGUUCGGG [-22.4, -44.7 kcal, A 16%] (Eterna round: R97, puzzle: Sensor, turn-off variant 1) | 320 | 355 |  |
| AAUCCACAUGAGGAUCACCCAUGUCAGGAUAUCGCGCGCGCGUUUUCGGUCUUUCGCGCGAGAAGGGACGGCUG (puzzle: Exclusion 1) |  |  | apparent KD of MS2 coat protein [1]: 16.3 nM |
| AAUCCACAUGAGGAUCACCCAUGUGAGGAUAUGAUACUAUGUACUUCGGUACAUAGUAUCAGAAGGCACGGAUC [Ex1-3: 53] (puzzle: Exclusion 1) |  |  | apparent KD of MS2 coat protein [1]: 29.9 nM |
| AAUGAUUGACGAGGAUAUUGUGGUAGAUCACGACGAGAAGGCGUUUGUCACAUGAGGAUCACCCAUGUGAGCCUUGUGGAUAGA [Ex NG1 #75] (Eterna round: R96, puzzle: Exclusion NG 1) | 160 | 30.9 | apparent KD of MS2 coat protein [2]: 20.1 nM |
| AAUGAUUGACGAGGAUAUUGUGUUAGAUCACGACGAGAAGGCGUCUGUCACAUGAGGAUCACCCAUGUGAGCCUGGUGGAUAGA [Ex NG1 #78] (Eterna round: R96, puzzle: Exclusion NG 1) | 82.6 | 50 | apparent KD of MS2 coat protein [2]: 35.1 nM |
| AAUGAUUGACGAGGAUAUUGUGUUAGAUCACGACGAGAAGGCGUUUGUCACAUGAGGAUCACCCAUGUGAGCCUUGUGGAUAGA [Ex NG1 #76] (Eterna round: R96, puzzle: Exclusion NG 1) | 56.6 | 21.5 | apparent KD of MS2 coat protein [2]: 15.6 nM |
| AAUGCUGGUGUGAGGAUAUCAGCUGAAGAACAGAAUGAGAAGGCACAUGAGGAUCACCCAUGUAAAAGAAUAAA [Atbelaqu] (Eterna round: R97, puzzle: Brourd's mod of Exclusion 4) | 35.9 | 25.6 |  |
| AAUGUCUGAGGAUAUCGAUUAGUGUACAUGAGGAUCACCCAUGUUUUUAUUUGUAUAUUACGAGAAGGCAGUGGAA [JR_E5_Sub087] (puzzle: Exclusion 5) |  |  | apparent KD of MS2 coat protein (Eterna round: R95, input ligand: FMN 200 uM): 20.6 nM; apparent KD of MS2 coat protein [1]: 19.1 nM; apparent KD of MS2 coat protein (Eterna round: R95, input ligand: none): 17.2 nM |
| AAUGUGUAAGGAUAUCCGAAAAGCGAGCGAAAGCGAGCGAAGGAGAAGGUACAUGAGGAUCACCCAUGUAAGGG [AK-MS2ROC-r4-exclusion4-11.6] (Eterna round: R97, puzzle: Exclusion 4) | 71.5 | 530 |  |
| AAUUAACAUGUAGGAUAUCUGCACGAUUAGUGCAGAGAAGGACAUGAGGAUCACCCAUGUAUAGCGACUUCGGUCGCAAUAAUU [ENG1/2-B1] (Eterna round: R96, puzzle: Exclusion NG 1) | 161 | 80.6 | apparent KD of MS2 coat protein [2]: 69.5 nM |
| AAUUAAUGAGGAUAUACAGUGUAAAACAUGAGGAUCACCCAUGUUCUUCAAUUAGUAUUUGUAGAAGGCAUAGGUA [JR_Ex5_Sub093] (Eterna round: R97, puzzle: Exclusion 5) | 32 | 61.4 |  |
| AAUUAGCAAGCGAGGUCCCACAUGAGGAUCACCCAUGUGCUCGUCUUAUAAGGUACUGUGACGAGAGUCACGGUACC [Mat - Sensor, turn-off var - Eli Mod - D35] (Eterna round: R97, puzzle: Sensor, turn-off variant 1) | 13.8 | 15.2 |  |
| AAUUAGUAUGUGAGGAUAUUGAUGAGAUGAUGGUUUAAGAAGGCACAUGAGGAUCACCCAUGUAGGAAAUAACG [JR_BMEx4_Sub005] (Eterna round: R97, puzzle: Brourd's mod of Exclusion 4) | 37.8 | 24.4 |  |
| AAUUAGUGAGGAUAUUUUAACAGUGGUAGUAGACAGUGGAUGAAGAAGGCACAUGAGGAUCACCCAUGUUAUAA [EX4 #55] (Eterna round: R97, puzzle: Exclusion 4) | 164 | 147 |  |
| AAUUCACAUGAGGAUCACCCAUGUCAGGAUAUGCUGACGCGGGUUUCGGUGCGUGUUGGCAGAAGGGACAGCUA (puzzle: Exclusion 1) |  |  | apparent KD of MS2 coat protein [1]: 144 nM |
